Test results taken from publication PMC10331576.

Target: COVID-2019-Spike-328-585 (RBD) (SARS-CoV-2), P0DTC2
Experiment: BLI; […] (HIS1K) […] (50 μM, 31 μM, and 8.8 μM); 30°C, PBS; 1:1 binding model; Octet HTX
Conditions: remark: other sources report otherwise

B1: DC-SIGN.Fc, Q9NNX6 (Fc fusion)
chain: QVSKVPSSISQEQSRQDAIYQNLTQLKAAVGELSEKSKLQEIYQELTQLKAAVGELPEKSKLQEIYQELTRLKAAVGELPEKSKLQEIYQELTWLKAAVGELPEKSKMQEIYQELTRLKAAVGELPEKSKQQEIYQELTRLKAAVGELPEKSKQQEIYQELTRLKAAVGELPEKSKQQEIYQELTQLKAAVERLCHPCPWEWTFFQGNCYFMSNSQRNWHDSITACKEVGAQLVVIKSAEEQNFLQLQSSRSNRFTWMGLSDLNQEGTWQWVDGSPLLPSFKQYWNRGEPNNVGEEDCAEFSGNGWNDDKCNLAKFWICKKSAASCSRDEEQFLSPAPATPNPPPA
- Kd: 18.7 µM
